T1: EsCas13d, nuclease-dead (Eubacterium siraeum, UniProt B0MS50, R295A;H300A;R849A;H854A)
T1 sequence: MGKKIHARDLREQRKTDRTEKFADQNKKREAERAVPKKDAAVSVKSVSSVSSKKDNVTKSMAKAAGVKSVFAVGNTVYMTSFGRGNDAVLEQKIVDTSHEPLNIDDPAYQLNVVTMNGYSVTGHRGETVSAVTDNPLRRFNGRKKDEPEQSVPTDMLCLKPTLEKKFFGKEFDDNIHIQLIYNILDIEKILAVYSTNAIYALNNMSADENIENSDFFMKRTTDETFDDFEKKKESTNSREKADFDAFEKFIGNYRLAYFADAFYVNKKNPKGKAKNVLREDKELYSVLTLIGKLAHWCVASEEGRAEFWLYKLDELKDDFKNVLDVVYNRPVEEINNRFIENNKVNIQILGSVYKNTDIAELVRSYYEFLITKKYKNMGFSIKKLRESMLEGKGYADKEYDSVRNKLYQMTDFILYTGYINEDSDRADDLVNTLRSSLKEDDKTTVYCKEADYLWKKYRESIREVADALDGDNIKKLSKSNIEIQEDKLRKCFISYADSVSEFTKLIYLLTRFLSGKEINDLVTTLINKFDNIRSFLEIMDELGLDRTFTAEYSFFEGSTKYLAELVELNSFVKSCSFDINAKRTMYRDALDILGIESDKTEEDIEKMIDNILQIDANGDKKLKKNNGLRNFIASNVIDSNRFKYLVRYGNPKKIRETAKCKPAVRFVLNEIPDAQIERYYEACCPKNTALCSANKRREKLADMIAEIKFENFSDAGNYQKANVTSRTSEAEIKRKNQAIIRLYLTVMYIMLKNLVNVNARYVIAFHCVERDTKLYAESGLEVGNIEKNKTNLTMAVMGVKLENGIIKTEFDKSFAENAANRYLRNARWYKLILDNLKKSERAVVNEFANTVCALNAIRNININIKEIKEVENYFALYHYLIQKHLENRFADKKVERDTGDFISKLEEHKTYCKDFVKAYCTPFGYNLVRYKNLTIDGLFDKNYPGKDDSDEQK

B1: target 1 insA 3' of 17,insC 3' of 5 (mixed)
RNA 1: CACCCGUGCAAAAAUGCAGGGGUCUAAAACUGAGCGGAUAACCUCUCUAUGG
RNA 2: GGGAAUGGAUCCACAUCUACGAAUUCGUACCAUAGAAGAGGUUAUCCGCCUCACCGAGAUCGGAAGAGCACACGU
B2: target 1 C7U,G12A (mixed)
RNA 1: CACCCGUGCAAAAAUGCAGGGGUCUAAAACUGAGCGGAUAACCUCUCUAUGG
RNA 2: GGGAAUGGAUCCACAUCUACGAAUUCGUACCAUAGAGAGAUUAUUCGCUCACCGAGAUCGGAAGAGCACACGU
B3: target 1 U8G,A9C (mixed)
RNA 1: CACCCGUGCAAAAAUGCAGGGGUCUAAAACUGAGCGGAUAACCUCUCUAUGG
RNA 2: GGGAAUGGAUCCACAUCUACGAAUUCGUACCAUAGAGAGGUUCGCCGCUCACCGAGAUCGGAAGAGCACACGU
B4: target 1 del19 (mixed)
RNA 1: CACCCGUGCAAAAAUGCAGGGGUCUAAAACUGAGCGGAUAACCUCUCUAUGG
RNA 2: GGGAAUGGAUCCACAUCUACGAAUUCGUACCAAGAGAGGUUAUCCGCUCACCGAGAUCGGAAGAGCACACGU
B5: target 1 insA 3' of 3 (mixed)
RNA 1: CACCCGUGCAAAAAUGCAGGGGUCUAAAACUGAGCGGAUAACCUCUCUAUGG
RNA 2: GGGAAUGGAUCCACAUCUACGAAUUCGUACCAUAGAGAGGUUAUCCGCUACACCGAGAUCGGAAGAGCACACGU
B6: target 1 C7G,U10A (mixed)
RNA 1: CACCCGUGCAAAAAUGCAGGGGUCUAAAACUGAGCGGAUAACCUCUCUAUGG
RNA 2: GGGAAUGGAUCCACAUCUACGAAUUCGUACCAUAGAGAGGUAAUGCGCUCACCGAGAUCGGAAGAGCACACGU
B7: target 1 G13A,G17A (mixed)
RNA 1: CACCCGUGCAAAAAUGCAGGGGUCUAAAACUGAGCGGAUAACCUCUCUAUGG
RNA 2: GGGAAUGGAUCCACAUCUACGAAUUCGUACCAUAAAGAAGUUAUCCGCUCACCGAGAUCGGAAGAGCACACGU
B8: target 1 C4A,G12C (mixed)
RNA 1: CACCCGUGCAAAAAUGCAGGGGUCUAAAACUGAGCGGAUAACCUCUCUAUGG
RNA 2: GGGAAUGGAUCCACAUCUACGAAUUCGUACCAUAGAGAGCUUAUCCGAUCACCGAGAUCGGAAGAGCACACGU
B9: target 1 insA 3' of 10,insG 3' of 8 (mixed)
RNA 1: CACCCGUGCAAAAAUGCAGGGGUCUAAAACUGAGCGGAUAACCUCUCUAUGG
RNA 2: GGGAAUGGAUCCACAUCUACGAAUUCGUACCAUAGAGAGGUUAAUGCCGCUCACCGAGAUCGGAAGAGCACACGU
B10: target 1 insG 3' of 16,insA 3' of 11 (mixed)
RNA 1: CACCCGUGCAAAAAUGCAGGGGUCUAAAACUGAGCGGAUAACCUCUCUAUGG
RNA 2: GGGAAUGGAUCCACAUCUACGAAUUCGUACCAUAGAGGAGGUAUAUCCGCUCACCGAGAUCGGAAGAGCACACGU
B11: target 1 insC 3' of 14,insG 3' of 8 (mixed)
RNA 1: CACCCGUGCAAAAAUGCAGGGGUCUAAAACUGAGCGGAUAACCUCUCUAUGG
RNA 2: GGGAAUGGAUCCACAUCUACGAAUUCGUACCAUAGAGACGGUUAUGCCGCUCACCGAGAUCGGAAGAGCACACGU
B12: target 1 A18U,U19C (mixed)
RNA 1: CACCCGUGCAAAAAUGCAGGGGUCUAAAACUGAGCGGAUAACCUCUCUAUGG
RNA 2: GGGAAUGGAUCCACAUCUACGAAUUCGUACCACUGAGAGGUUAUCCGCUCACCGAGAUCGGAAGAGCACACGU
B13: target 1 del2,del13 (mixed)
RNA 1: CACCCGUGCAAAAAUGCAGGGGUCUAAAACUGAGCGGAUAACCUCUCUAUGG
RNA 2: GGGAAUGGAUCCACAUCUACGAAUUCGUACCAUAGAGAGUUAUCCGCUACCGAGAUCGGAAGAGCACACGU
B14: target 1 C7A,A9C (mixed)
RNA 1: CACCCGUGCAAAAAUGCAGGGGUCUAAAACUGAGCGGAUAACCUCUCUAUGG
RNA 2: GGGAAUGGAUCCACAUCUACGAAUUCGUACCAUAGAGAGGUUCUACGCUCACCGAGAUCGGAAGAGCACACGU
B15: target 1 insU 3' of 9,insA 3' of 3 (mixed)
RNA 1: CACCCGUGCAAAAAUGCAGGGGUCUAAAACUGAGCGGAUAACCUCUCUAUGG
RNA 2: GGGAAUGGAUCCACAUCUACGAAUUCGUACCAUAGAGAGGUUAUUCCGCUACACCGAGAUCGGAAGAGCACACGU
B16: target 1 C7G,G15U (mixed)
RNA 1: CACCCGUGCAAAAAUGCAGGGGUCUAAAACUGAGCGGAUAACCUCUCUAUGG
RNA 2: GGGAAUGGAUCCACAUCUACGAAUUCGUACCAUAGAUAGGUUAUGCGCUCACCGAGAUCGGAAGAGCACACGU
B17: target 1 insA 3' of 13,insA 3' of 7 (mixed)
RNA 1: CACCCGUGCAAAAAUGCAGGGGUCUAAAACUGAGCGGAUAACCUCUCUAUGG
RNA 2: GGGAAUGGAUCCACAUCUACGAAUUCGUACCAUAGAGAGAGUUAUCACGCUCACCGAGAUCGGAAGAGCACACGU
B18: target 1 del1,del13 (mixed)
RNA 1: CACCCGUGCAAAAAUGCAGGGGUCUAAAACUGAGCGGAUAACCUCUCUAUGG
RNA 2: GGGAAUGGAUCCACAUCUACGAAUUCGUACCAUAGAGAGUUAUCCGCUCCCGAGAUCGGAAGAGCACACGU
B19: target 1 A16G,C21A (mixed)
RNA 1: CACCCGUGCAAAAAUGCAGGGGUCUAAAACUGAGCGGAUAACCUCUCUAUGG
RNA 2: GGGAAUGGAUCCACAUCUACGAAUUCGUACAAUAGGGAGGUUAUCCGCUCACCGAGAUCGGAAGAGCACACGU
B20: target 1 insG 3' of 16,insG 3' of 8 (mixed)
RNA 1: CACCCGUGCAAAAAUGCAGGGGUCUAAAACUGAGCGGAUAACCUCUCUAUGG
RNA 2: GGGAAUGGAUCCACAUCUACGAAUUCGUACCAUAGAGGAGGUUAUGCCGCUCACCGAGAUCGGAAGAGCACACGU
B21: target 1 U3C,C7U (mixed)
RNA 1: CACCCGUGCAAAAAUGCAGGGGUCUAAAACUGAGCGGAUAACCUCUCUAUGG
RNA 2: GGGAAUGGAUCCACAUCUACGAAUUCGUACCAUAGAGAGGUUAUUCGCCCACCGAGAUCGGAAGAGCACACGU
B22: target 1 insG 3' of 6,insG 3' of 1 (mixed)
RNA 1: CACCCGUGCAAAAAUGCAGGGGUCUAAAACUGAGCGGAUAACCUCUCUAUGG
RNA 2: GGGAAUGGAUCCACAUCUACGAAUUCGUACCAUAGAGAGGUUAUCCGGCUCAGCCGAGAUCGGAAGAGCACACGU
B23: target 1 insG 3' of 18,insU 3' of 2 (mixed)
RNA 1: CACCCGUGCAAAAAUGCAGGGGUCUAAAACUGAGCGGAUAACCUCUCUAUGG
RNA 2: GGGAAUGGAUCCACAUCUACGAAUUCGUACCAUAGGAGAGGUUAUCCGCUCUACCGAGAUCGGAAGAGCACACGU
B24: target 1 insU 3' of 21,insC 3' of 13 (mixed)
RNA 1: CACCCGUGCAAAAAUGCAGGGGUCUAAAACUGAGCGGAUAACCUCUCUAUGG
RNA 2: GGGAAUGGAUCCACAUCUACGAAUUCGUACCUAUAGAGAGCGUUAUCCGCUCACCGAGAUCGGAAGAGCACACGU

These binders were tested against T1, EsCas13d, nuclease-dead (assay: crRNA (strand 1, pre-loaded); Mg2+; 40 mM Tris-HCl pH 7.5, 150 mM NaCl, 6 mM MgCl2, 1 mM DTT, 0.1% Tween-20, 0.2 mg/ml BSA; 25 C; 10 min per concentration, then washed). Conditions: tags: His6-TwinStrep-SUMO cleaved; N-terminal SNAP kept (SNAP-Surface 488); label: 3' end held by stalled T7 RNA polymerase.

Compared with B1, B2 is 4.7-fold lower in Kd: 32.2 ± 2.7 nM for the first, 6.9 ± 0.4 nM for the second. The second binds more tightly here.

Going from B3 to B4, the Kd rises from 11 ± 0.6 nM to 26.4 ± 2.2 nM (2.4-fold).

B5 and B6 are within 1.5-fold of each other in Kd: 8.8 ± 0.4 nM for the first, 11.7 ± 0.5 nM for the second.

Compared with B7, B8 is 2.1-fold lower in Kd: 66 ± 19 nM for the first, 31 ± 8 nM for the second.

Compared with B9, B10 is 2-fold higher in Kd: 10.1 ± 0.5 nM for the first, 19.7 ± 1 nM for the second.

B11 and B12 are within error of each other in Kd: 65 ± 11 nM for the first, 64 ± 16 nM for the second.

B13 and B14 are within 1.5-fold of each other in Kd: 11.7 ± 0.4 nM for the first, 13.6 ± 0.9 nM for the second.

First: B15
Second: B16
The Kd of the first is 2.3-fold lower: 13.1 ± 0.7 nM for the first, 30 ± 4 nM for the second.

Compared with B17, B18 is 6.2-fold higher in Kd: 4.06 ± 0.21 nM for the first, 25 ± 4 nM for the second. The first binds more tightly here.

Compared with B19, B20 is 2.1-fold lower in Kd: 48 ± 11 nM for the first, 23.1 ± 1.9 nM for the second. The second binds more tightly here.

Compared with B21, B22 is 3.4-fold lower in Kd: 19.6 ± 2.2 nM for the first, 5.7 ± 0.4 nM for the second.

First: B23
Second: B24
The Kd of the first is 2.6-fold higher: 84 ± 26 nM for the first, 32 ± 4 nM for the second. The second binds more tightly here.

From paper PMC10786891, “Massively parallel profiling of RNA-targeting CRISPR-Cas13d”
